Tests used:
[1] = target: T1, recombinant human PSMA (rhPSMA) (Homo sapiens, UniProt Q04609); assay: Naaladase assay (fluorescence-based Naaladase activity inhibition); assay type: biochemical; details: rhPSMA 0.4 μg/mL, substrate N-Acetyl-Asp-Glu 40 μM, 37° C. one hour
T1 construct: purchased Sino Biological
Method: Naaladase activity inhibition was determined using a fluorescence-based assay. Briefly, the solution containing the substrate N-Acetyl-Asp-Glu (Sigma-Aldrich) at 40 μM and the compound at concentrations from 0.15 nM to 1000 nM was mixed at equal volume with recombinant human PSMA (rhPSMA, Sino Biological) at 0.4 μg/mL, in assay buffer (50 mM HEPES, 100 mM NaCl, pH 7.5). The enzymatic reaction was proceeded by incubation at 37° C. for one hour and then stopped by heating at 95° C. for 5 minutes. A solution of 15 mM ortho-phthaldialdehyde (Sigma-Aldrich) was added to all vials and incubated for 10 min at ambient temperature. The reaction solutions were loaded onto a 96-well flat clear bottom black microplates (Corning) and read at excitation and emission wavelengths of 330 and 450 nm, respectively, using a microplate reader (Tecan). The data were analyzed by a one-site total binding regression algorithm of GraphPad Prism (GraphPad Software).

[2] = Tissue biodistribution in LnCAP tumor mouse model; set-up: species or system mice; details: male, SCID, in vivo, iv, total radioactivity
Text: (§1) LnCAP and 22RV1 CDX xenograft tumor models were generated by inoculating 5×10^6 cells/site subcutaneously in male SCID or nude mice (Vital River), respectively. Animals were housed according to IACUC guidance and had accessed to food and water ad libitium. Animals were used for biodistribution study when the tumor dimensions reached around 0.2-0.3 cm^3. […] At each tome point, animals were sacrificed and tissues were collected, weighted, and subjected to radioactivity measurements using gamma counter. Radioactivity in the tissues was presented in % ID/g (percent of injected dose per gram).

[3] = Tissue biodistribution in 22Rv1 tumor mouse model; set-up: species or system mice; details: male, nude, in vivo, iv, total radioactivity
Text: as §1

[4] = Tissue biodistribution: Salivary Gland

T1 sequence (Q04609 whole entry): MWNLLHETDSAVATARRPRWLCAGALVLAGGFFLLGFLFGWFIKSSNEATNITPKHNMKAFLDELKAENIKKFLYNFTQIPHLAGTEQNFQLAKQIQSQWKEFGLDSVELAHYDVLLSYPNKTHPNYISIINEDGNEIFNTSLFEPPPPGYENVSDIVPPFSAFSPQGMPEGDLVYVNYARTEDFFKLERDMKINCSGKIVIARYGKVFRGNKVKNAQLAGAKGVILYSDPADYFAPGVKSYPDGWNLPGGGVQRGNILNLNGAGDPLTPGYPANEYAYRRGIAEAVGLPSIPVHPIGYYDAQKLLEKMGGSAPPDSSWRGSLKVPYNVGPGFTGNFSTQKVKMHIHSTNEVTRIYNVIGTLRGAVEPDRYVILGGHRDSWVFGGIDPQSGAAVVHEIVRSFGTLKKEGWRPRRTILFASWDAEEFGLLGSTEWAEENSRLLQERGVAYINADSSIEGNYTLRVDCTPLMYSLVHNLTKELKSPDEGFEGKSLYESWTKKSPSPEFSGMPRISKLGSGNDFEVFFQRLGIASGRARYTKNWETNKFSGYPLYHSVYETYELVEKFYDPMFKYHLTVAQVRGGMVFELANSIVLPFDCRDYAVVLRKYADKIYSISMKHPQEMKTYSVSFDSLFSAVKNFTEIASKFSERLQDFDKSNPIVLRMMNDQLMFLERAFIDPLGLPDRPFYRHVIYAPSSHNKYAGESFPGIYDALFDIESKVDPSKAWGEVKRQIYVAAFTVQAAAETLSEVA

## O=C(O)CN1CCN(CC(=O)O)CCN(CC(=O)NC23CCC(Nc4c(N[C@@H](Cc5ccc6ccccc6c5)C(=O)NCCCC[C@H](NC(=O)N[C@@H](CNC(=O)C(=O)O)C(=O)O)C(=O)O)c(=O)c4=O)(CC2)CC3)CCN(CC(=O)O)CC1 [E21, (4S,8S,15S)-15-((3,4-dioxo-2-((4-(2-(4,7,10-tris(carboxymethyl)-1,4,7,10-tetraazacyclododecan-1-yl)acetamido)bicyclo[2.2.2]octan-1-yl)amino)cyclobut-1-en-1-yl)amino)-16-(naphthalen-2-yl)-1,6,14-trioxo-2,5,7,13-tetraazahexadecane-1,4,8-tricarboxylic acid]
[1]
  IC50: 1.5 nM

## O=C(O)CN1CCN(CC(=O)O)CCN(CC(=O)NC23CCC(Nc4cc(N[C@@H](Cc5c6ccccc6cc6ccccc56)C(=O)NCCCC[C@H](NC(=O)N[C@@H](CNC(=O)C(=O)O)C(=O)O)C(=O)O)ncn4)(CC2)CC3)CCN(CC(=O)O)CC1 [E22, (4S,8S,15S)-16-(anthracen-9-yl)-1,6,14-trioxo-15-((6-((4-(2-(4,7,10-tris(carboxymethyl)-1,4,7,10-tetraazacyclododecan-1-yl)acetamido)bicyclo[2.2.2]octan-1-yl)amino)pyrimidin-4-yl)amino)-2,5,7,13-tetraazahexadecane-1,4,8-tricarboxylic acid]
[1]
  IC50: 4.9 nM

## O=C(O)CC[C@H](NC(=O)N[C@@H](CCCCNC(=O)[C@H](Cc1ccc2ccccc2c1)Nc1cc(NC23CCC(NC(=O)CN4CCN(CC(=O)O)CCN(CC(=O)O)CCN(CC(=O)O)CC4)(CC2)CC3)ncn1)C(=O)O)C(=O)O [E24]
[1]
  IC50: 8.6 nM

## COc1nc(N[C@@H](Cc2ccc3ccccc3c2)C(=O)NCCCC[C@H](NC(=O)N[C@@H](CCC(=O)O)C(=O)O)C(=O)O)cc(NC23CCC(NC(=O)CN4CCN(CC(=O)O)CCN(CC(=O)O)CCN(CC(=O)O)CC4)(CC2)CC3)n1 [E25]
[1]
  IC50: 23.1 nM

## O=C(O)CN1CCN(CC(=O)O)CCN(CC(=O)NC23CCC(Nc4nnc(N[C@@H](Cc5c6ccccc6cc6ccccc56)C(=O)NCCCC[C@H](NC(=O)N[C@@H](CNC(=O)C(=O)O)C(=O)O)C(=O)O)s4)(CC2)CC3)CCN(CC(=O)O)CC1 [E26]
[1]
  IC50: 9.5 nM

## O=C(O)CC[C@H](NC(=O)N[C@@H](CCCCNC(=O)[C@H](Cc1ccc2ccccc2c1)Nc1nc(O)nc(NC23CCC(NC(=O)CN4CCN(CC(=O)O)CCN(CC(=O)O)CCN(CC(=O)O)CC4)(CC2)CC3)n1)C(=O)O)C(=O)O [E27]
[1]
  IC50: 26.6 nM

## O=C(O)CC[C@H](NC(=O)N[C@@H](CCCCNC(=O)[C@H](Cc1ccc2ccccc2c1)Nc1c(NC23CCC(c4nnc(CN5CCN(CC(=O)O)CCN(CC(=O)O)CCN(CC(=O)O)CC5)o4)(CC2)CC3)c(=O)c1=O)C(=O)O)C(=O)O [E28]
[1]
  IC50: 2.1 nM

## O=C(O)CC[C@H](NC(=O)N[C@@H](CCCCNC(=O)[C@H](Cc1ccc2ccccc2c1)NC(=O)[C@H]1CC[C@H](CNC(=O)CN2CCN(CC(=O)O)CCN(CC(=O)O)CCN(CC(=O)O)CC2)CC1)C(=O)O)C(=O)O [[^177Lu]Lu-PSMA-617, metal not drawn, reference compound]
[2]
  tissue uptake dose at 2 h: 8.53 ± 0.64 %ID
  tissue uptake dose at 6 h: 3.71 ± 1.76 %ID
  tissue uptake dose at 24 h: 4.44 ± 3.53 %ID
  tissue uptake dose at 72 h: 1.03 ± 0.18 %ID
  tissue uptake dose at 168 h: 0.73 ± 0.03 %ID
[2]; Tissue biodistribution: Blood
  tissue uptake at 2 h: 0.38 ± 0.05 %ID/g
  tissue uptake at 6 h: 0.08 ± 0.04 %ID/g
  tissue uptake at 24 h: 0.03 ± 0.01 %ID/g
[2]; Tissue biodistribution: Bone
  tissue uptake at 6 h: 0.2 ± 0.01 %ID/g
[2]; Tissue biodistribution: Gland
  tissue uptake at 2 h: 0.56 ± 0.04 %ID/g
  tissue uptake at 24 h: 0.07 %ID/g
  tissue uptake at 72 h: 0.06 %ID/g
  tissue uptake at 168 h: 0.06 ± 0.01 %ID/g
[2]; Tissue biodistribution: Heart
  tissue uptake at 24 h: 0.06 ± 0.02 %ID/g
  tissue uptake at 72 h: 0.06 ± 0.01 %ID/g
  tissue uptake at 168 h: 0.07 %ID/g
[2]; Tissue biodistribution: Kidney
  tissue uptake at 2 h: 66.9 ± 96.1 %ID/g
  tissue uptake at 6 h: 45.6 ± 37.1 %ID/g
  tissue uptake at 24 h: 3.25 ± 1.04 %ID/g
  tissue uptake at 72 h: 0.96 ± 0.33 %ID/g
[2]; Tissue biodistribution: Liver
  tissue uptake at 2 h: 0.21 ± 0.03 %ID/g
  tissue uptake at 6 h: 0.11 ± 0.04 %ID/g
  tissue uptake at 24 h: 0.07 ± 0.02 %ID/g
  tissue uptake at 72 h: 0.06 ± 0.01 %ID/g
  tissue uptake at 168 h: 0.04 ± 0.01 %ID/g
[2]; Tissue biodistribution: Lung
  tissue uptake at 2 h: 0.91 ± 0.06 %ID/g
  tissue uptake at 24 h: 0.09 ± 0.02 %ID/g
  tissue uptake at 72 h: 0.05 ± 0.01 %ID/g
  tissue uptake at 168 h: 0.05 ± 0.01 %ID/g
[2]; Tissue biodistribution: Muscle
  tissue uptake at 6 h: 0.08 ± 0.02 %ID/g
  tissue uptake at 168 h: 0.03 ± 0.02 %ID/g
[2]; Tissue biodistribution: Spleen
  tissue uptake at 2 h: 0.7 ± 0.21 %ID/g
  tissue uptake at 6 h: 0.36 ± 0.04 %ID/g
[2]; Tissue biodistribution: Tumor
  tissue uptake at 2 h: 30.2 ± 5.26 %ID/g
  tissue uptake at 6 h: 27.4 ± 7.91 %ID/g
  tissue uptake at 24 h: 19.8 ± 4.66 %ID/g
  tissue uptake at 72 h: 11.9 ± 1.2 %ID/g
  tissue uptake at 168 h: 4.74 ± 1.95 %ID/g
[3]
  tissue uptake dose at 2 h: 4.15 ± 0.06 %ID
  tissue uptake dose at 24 h: 1.21 ± 0.03 %ID
[3]; Tissue biodistribution: Blood
  tissue uptake at 2 h: 0.08 ± 0.03 %ID/g
  tissue uptake at 6 h: 0.03 ± 0.01 %ID/g
[3]; Tissue biodistribution: Bone
  tissue uptake at 24 h: 0.11 ± 0.03 %ID/g
[3]; Tissue biodistribution: Heart
  tissue uptake at 2 h: 0.1 ± 0.02 %ID/g
  tissue uptake at 6 h: 0.06 ± 0.01 %ID/g
  tissue uptake at 24 h: 0.05 ± 0.01 %ID/g
  tissue uptake at 72 h: 0.05 ± 0.01 %ID/g
  tissue uptake at 168 h: 0.06 ± 0.01 %ID/g
[3]; Tissue biodistribution: Kidney
  tissue uptake at 2 h: 53 ± 27.4 %ID/g
  tissue uptake at 6 h: 12.3 ± 6.38 %ID/g
  tissue uptake at 24 h: 1.35 ± 0.48 %ID/g
  tissue uptake at 168 h: 0.08 ± 0.03 %ID/g
[3]; Tissue biodistribution: Liver
  tissue uptake at 2 h: 0.09 ± 0.02 %ID/g
  tissue uptake at 6 h: 0.08 ± 0.02 %ID/g
  tissue uptake at 24 h: 0.05 ± 0.01 %ID/g
  tissue uptake at 72 h: 0.04 ± 0.01 %ID/g
  tissue uptake at 168 h: 0.03 ± 0.01 %ID/g
[3]; Tissue biodistribution: Lung
  tissue uptake at 2 h: 0.29 ± 0.05 %ID/g
  tissue uptake at 24 h: 0.06 ± 0.01 %ID/g
  tissue uptake at 72 h: 0.05 ± 0.01 %ID/g
  tissue uptake at 168 h: 0.05 %ID/g
[3]; Tissue biodistribution: Muscle
  tissue uptake at 2 h: 0.09 ± 0.03 %ID/g
  tissue uptake at 6 h: 0.05 ± 0.02 %ID/g
[3]; [4]
  tissue uptake at 6 h: 0.1 ± 0.02 %ID/g
  tissue uptake at 24 h: 0.06 ± 0.01 %ID/g
  tissue uptake at 72 h: 0.05 ± 0.02 %ID/g
  tissue uptake at 168 h: 0.05 ± 0.01 %ID/g
[3]; Tissue biodistribution: Spleen
  tissue uptake at 2 h: 0.78 ± 0.11 %ID/g
  tissue uptake at 72 h: 0.11 ± 0.04 %ID/g
  tissue uptake at 168 h: 0.09 ± 0.03 %ID/g
[3]; Tissue biodistribution: Tumor
  tissue uptake at 2 h: 11.4 ± 2.27 %ID/g
  tissue uptake at 6 h: 12.6 ± 3.23 %ID/g
  tissue uptake at 24 h: 9.84 ± 1.45 %ID/g
  tissue uptake at 72 h: 5.57 ± 0.6 %ID/g
  tissue uptake at 168 h: 0.96 ± 0.5 %ID/g

Reference: US20260176254A1, “INHIBITORS OF PROSTATE SPECIFIC MEMBRANE ANTIGEN AND USE THEREOF” (SHANGHAI SINOTAU BIOTECH. CO., LTD, priority 2023, published 2026)
